{
  "source": "patent US20160257711A1",
  "about": "(BOARD OF TRUSTEES OF THE UNIVERSITY OF ILLINOIS, published 2016)",
  "binders": {"B1": {"name": "Gα13 (G protein α subunit), endogenous protein of human platelets (other)", "chain": "MADFLPSRSVLSVCFPGCLLTSGEAEQQRKSKEIDKCLSREKTYVKRLVKILLLGAGESGKSTFLKQMRIIHGQDFDQRAREEFRPTIYSNVIKGMRVLVDAREKLHIPWGDNSNQQHGDKMMSFDTRAPMAAQGMVETRVFLQYLPAIRALWADSGIQNAYDRRREFQLGESVKYFLDNLDKLGEPDYIPSQQDILLARRPTKGIHEYDFEIKNVPFKMVDVGGQRSERKRWFECFDSVTSILFLVSSSEFDQVLMEDRLTNRLTESLNIFETIVNNRVFSNVSIILFLNKTDLLEEKVQIVSIKDYFLEFEGDPHCLRDVQKFLVECFRNKRRDQQQKPLYHHFTTAINTENIRLVFRDVKDTILHDNLKQLMLQ", "notes": "Endogenous Gα13 in detergent lysates of washed human platelets, precipitated or detected with anti-Gα13 antibody; also called G protein subunit Gα13"}},
  "target": "T1, integrin αIIbβ3 of human platelets (human, UniProt P08514 32-1039)",
  "T1 construct": "whole, on cells; Endogenous receptor; also called integrin β3; glycoprotein IIb-IIIa",
  "experiment": "co-IP from platelet lysates and GST pull-downs",
  "data": [
    {"binder": "B1", "values": [
      {"measurement": "binding result", "value": "binds"}
    ]}
  ]
}
